The numbers were not newly measured in publication PMC3433420, which cites them from elsewhere.

Like-named read-outs stand apart in the source and are kept apart here.

Holding throughout (conditions): cited from earlier work
Data set [1] addresses SHC1-PTB (Homo sapiens) (UniProt P29353).
The target in data set [2] is CRKL (Homo sapiens) (UniProt P46109).
Data set [3] has as its target SYK-NC (Homo sapiens) (UniProt P43405).
Data set [4] shares this target. The source holds these as a separate data set.
Data set [5] addresses PIK3R1-NC (Homo sapiens) (UniProt P27986).
Data set [6] concerns the target ABL2 (Homo sapiens) (UniProt P42684).
The target is the same in data set [7]. The source holds these as a separate data set.
The target in data set [8] is VAV2 (Homo sapiens) (UniProt P52735).
For data set [9], the target named is VAV1 (Homo sapiens) (UniProt P15498).
The target of data set [10] is RASA1-N (Homo sapiens) (UniProt P20936).
In data set [11] the target is PIK3R3-NC (Homo sapiens) (UniProt Q92569).
Data set [12] has as its target RASA1-N (Homo sapiens) (UniProt P20936). This is another data set of the same source.
The target in data set [13] is ITK (Homo sapiens) (UniProt Q08881).
Data set [14] deals with VAV3 (Homo sapiens) (UniProt Q9UKW4).
The target of data set [15] is SYK-C (Homo sapiens) (UniProt P43405).
Data set [16] concerns the target VAV2 (Homo sapiens) (UniProt P52735). This is another data set of the same source.
Data set [17] has as its target PIK3R3-N (Homo sapiens) (UniProt Q92569).
Data set [18] addresses GRB2 (Homo sapiens) (UniProt P62993).
Data set [19] addresses PLCG2-NC (Homo sapiens) (UniProt P16885).
In data set [20] the target is PIK3R2-N (Homo sapiens) (UniProt O00459).
For data set [21], the target named is PIK3R3-NC (Homo sapiens) (UniProt Q92569). The source holds these as a separate data set.
Data set [22] concerns the target NCK2 (Homo sapiens) (UniProt O43639).
Data set [23] addresses YES1 (Homo sapiens) (UniProt P07947).
Data set [24] concerns the target NCK2 (Homo sapiens) (UniProt O43639). This is another data set of the same source.
Data set [25] concerns the target FGR (Homo sapiens) (UniProt P09769).
For data set [26], the target named is SHC1-PTB (Homo sapiens) (UniProt P29353). The source holds these as a separate data set.
Data set [27] addresses RASA1-N (Homo sapiens) (UniProt P20936). The source holds these as a separate data set.
In data set [28] the target is GRB7 (Homo sapiens) (UniProt Q14451).
Data set [29] deals with SOCS5 (Homo sapiens) (UniProt O75159).
Data set [30] has as its target ABL2 (Homo sapiens) (UniProt P42684). This is another data set of the same source.
Data set [31] concerns the target SLA (Homo sapiens) (UniProt Q13239).
Data set [32] addresses PLCG2-NC (Homo sapiens) (UniProt P16885). The source holds these as a separate data set.
The target of data set [33] is PIK3R3-NC (Homo sapiens) (UniProt Q92569). The source holds these as a separate data set.
Data set [34] has as its target RASA1-NC (Homo sapiens) (UniProt P20936).
Data set [35] addresses RASA1-N (Homo sapiens) (UniProt P20936). The source holds these as a separate data set.
Data set [36] addresses ABL2 (Homo sapiens) (UniProt P42684). The source holds these as a separate data set.
Data set [37] concerns the target SYK-NC (Homo sapiens) (UniProt P43405). This is another data set of the same source.
Data set [38] has as its target SHB (Homo sapiens) (UniProt Q15464).
The target in data set [39] is RASA1-N (Homo sapiens) (UniProt P20936). This is another data set of the same source.
The target in data set [40] is ABL2 (Homo sapiens) (UniProt P42684). This is another data set of the same source.
For data set [41], the target named is YES1 (Homo sapiens) (UniProt P07947). This is another data set of the same source.
Data set [42] concerns the target BLK (Homo sapiens) (UniProt P51451).
In data set [43] the target is ZAP70-NC (Homo sapiens) (UniProt P43403).
Data set [44] has as its target PIK3R3-NC (Homo sapiens) (UniProt Q92569). This is another data set of the same source.
Data set [45] concerns the target YES1 (Homo sapiens) (UniProt P07947). The source holds these as a separate data set.
Data set [46] deals with PIK3R1-NC (Homo sapiens) (UniProt P27986). This is another data set of the same source.
Data set [47] has as its target PIK3R2-N (Homo sapiens) (UniProt O00459). This is another data set of the same source.
Data set [48] has as its target PIK3R3-N (Homo sapiens) (UniProt Q92569). This is another data set of the same source.
Data set [49] deals with BLK (Homo sapiens) (UniProt P51451). This is another data set of the same source.
The target in data set [50] is RASA1-N (Homo sapiens) (UniProt P20936). The source holds these as a separate data set.
Data set [51] deals with ABL2 (Homo sapiens) (UniProt P42684). The source holds these as a separate data set.
Data set [52] has as its target FGR (Homo sapiens) (UniProt P09769). This is another data set of the same source.

Chain of YES1 (Homo sapiens) (P07947 153-260): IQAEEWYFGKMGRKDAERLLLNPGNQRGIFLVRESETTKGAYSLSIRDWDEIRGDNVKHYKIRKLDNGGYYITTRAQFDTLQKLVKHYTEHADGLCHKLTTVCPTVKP
Chain of RASA1-N (Homo sapiens) (P20936 176-446): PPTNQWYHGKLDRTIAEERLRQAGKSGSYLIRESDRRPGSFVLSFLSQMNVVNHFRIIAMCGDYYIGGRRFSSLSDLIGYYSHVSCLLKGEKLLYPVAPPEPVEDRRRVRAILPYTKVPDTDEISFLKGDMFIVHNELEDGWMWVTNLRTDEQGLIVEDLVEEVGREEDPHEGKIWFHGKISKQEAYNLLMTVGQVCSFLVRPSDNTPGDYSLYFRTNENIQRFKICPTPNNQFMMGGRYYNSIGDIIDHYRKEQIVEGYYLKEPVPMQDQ
Chain of ABL2 (Homo sapiens) (P42684 168-268): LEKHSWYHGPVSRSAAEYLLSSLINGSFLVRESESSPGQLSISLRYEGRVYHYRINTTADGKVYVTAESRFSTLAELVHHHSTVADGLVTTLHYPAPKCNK
Chain of PLCG2-NC (Homo sapiens) (P16885 527-740): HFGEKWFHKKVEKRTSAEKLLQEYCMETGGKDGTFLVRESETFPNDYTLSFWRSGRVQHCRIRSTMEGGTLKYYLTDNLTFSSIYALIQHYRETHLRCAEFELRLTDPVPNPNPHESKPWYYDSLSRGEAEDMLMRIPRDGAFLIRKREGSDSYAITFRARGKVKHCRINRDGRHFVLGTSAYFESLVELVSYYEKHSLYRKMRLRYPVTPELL
Chain of NCK2 (Homo sapiens) (O43639 280-380): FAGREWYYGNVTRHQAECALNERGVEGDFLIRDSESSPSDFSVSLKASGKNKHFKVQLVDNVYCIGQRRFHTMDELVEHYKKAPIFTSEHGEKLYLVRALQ
Chain of VAV2 (Homo sapiens) (P52735 668-772): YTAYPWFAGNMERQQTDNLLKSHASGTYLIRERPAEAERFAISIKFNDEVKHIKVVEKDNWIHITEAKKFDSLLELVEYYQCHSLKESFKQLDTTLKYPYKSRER
Chain of BLK (Homo sapiens) (P51451 119-225): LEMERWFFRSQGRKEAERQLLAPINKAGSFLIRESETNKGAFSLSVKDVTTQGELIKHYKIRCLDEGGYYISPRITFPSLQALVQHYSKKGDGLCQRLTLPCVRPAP
Chain of PIK3R1-NC (Homo sapiens) (P27986 328-723): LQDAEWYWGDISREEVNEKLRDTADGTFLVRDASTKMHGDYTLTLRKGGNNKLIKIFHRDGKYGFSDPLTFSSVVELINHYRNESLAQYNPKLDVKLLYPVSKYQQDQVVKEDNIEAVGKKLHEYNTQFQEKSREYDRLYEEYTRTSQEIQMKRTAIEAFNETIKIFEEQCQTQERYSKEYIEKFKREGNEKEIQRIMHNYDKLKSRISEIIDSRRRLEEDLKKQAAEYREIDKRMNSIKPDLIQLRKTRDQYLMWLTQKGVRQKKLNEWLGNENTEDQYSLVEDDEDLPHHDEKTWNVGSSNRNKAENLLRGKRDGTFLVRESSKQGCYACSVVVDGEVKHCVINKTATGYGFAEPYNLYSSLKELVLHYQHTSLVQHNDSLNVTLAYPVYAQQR
Chain of PIK3R2-N (Homo sapiens) (O00459 325-721): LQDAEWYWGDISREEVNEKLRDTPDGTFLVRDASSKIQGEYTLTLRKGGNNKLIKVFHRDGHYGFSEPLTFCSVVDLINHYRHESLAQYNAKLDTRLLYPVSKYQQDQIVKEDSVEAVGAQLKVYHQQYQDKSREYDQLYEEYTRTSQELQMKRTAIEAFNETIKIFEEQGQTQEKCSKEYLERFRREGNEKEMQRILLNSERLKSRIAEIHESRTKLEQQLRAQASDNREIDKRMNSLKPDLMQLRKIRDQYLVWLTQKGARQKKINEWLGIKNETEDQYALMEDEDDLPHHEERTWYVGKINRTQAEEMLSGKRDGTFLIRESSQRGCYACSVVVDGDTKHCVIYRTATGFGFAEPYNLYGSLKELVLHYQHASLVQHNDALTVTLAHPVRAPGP
Chain of SHC1-PTB (Homo sapiens) (P29353 483-583): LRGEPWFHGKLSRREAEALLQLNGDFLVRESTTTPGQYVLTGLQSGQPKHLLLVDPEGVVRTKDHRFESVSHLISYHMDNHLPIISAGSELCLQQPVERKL
Chain of SHB (Homo sapiens) (Q15464 405-509): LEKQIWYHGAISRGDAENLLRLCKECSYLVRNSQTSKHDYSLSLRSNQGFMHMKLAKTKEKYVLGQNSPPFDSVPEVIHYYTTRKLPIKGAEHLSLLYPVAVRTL
Chain of ITK (Homo sapiens) (Q08881 234-343): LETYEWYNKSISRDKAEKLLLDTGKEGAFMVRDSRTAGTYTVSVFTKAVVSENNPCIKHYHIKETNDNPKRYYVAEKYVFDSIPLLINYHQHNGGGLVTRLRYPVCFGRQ
Chain of VAV1 (Homo sapiens) (P15498 666-770): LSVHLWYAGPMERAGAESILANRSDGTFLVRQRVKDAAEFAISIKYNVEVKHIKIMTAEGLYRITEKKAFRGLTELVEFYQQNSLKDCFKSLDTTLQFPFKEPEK
Chain of VAV3 (Homo sapiens) (Q9UKW4 667-771): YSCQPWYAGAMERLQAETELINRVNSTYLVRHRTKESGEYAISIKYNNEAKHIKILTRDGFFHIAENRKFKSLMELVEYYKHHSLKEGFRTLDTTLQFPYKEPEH
Chain of ZAP70-NC (Homo sapiens) (P43403 5-259): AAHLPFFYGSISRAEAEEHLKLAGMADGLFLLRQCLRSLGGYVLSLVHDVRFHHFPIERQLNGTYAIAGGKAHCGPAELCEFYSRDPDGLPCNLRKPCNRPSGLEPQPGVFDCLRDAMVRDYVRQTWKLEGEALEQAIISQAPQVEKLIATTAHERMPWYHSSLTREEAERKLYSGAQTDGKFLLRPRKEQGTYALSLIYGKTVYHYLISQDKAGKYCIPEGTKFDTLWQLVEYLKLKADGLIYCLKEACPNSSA
Chain of GRB2 (Homo sapiens) (P62993 55-157): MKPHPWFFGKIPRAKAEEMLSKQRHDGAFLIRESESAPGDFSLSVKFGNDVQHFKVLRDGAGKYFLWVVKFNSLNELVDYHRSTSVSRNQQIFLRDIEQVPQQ
Chain of GRB7 (Homo sapiens) (Q14451 426-532): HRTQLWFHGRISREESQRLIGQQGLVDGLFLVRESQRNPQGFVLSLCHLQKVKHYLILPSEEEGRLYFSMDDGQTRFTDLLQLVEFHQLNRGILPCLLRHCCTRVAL
Chain of CRKL (Homo sapiens) (P46109 9-107): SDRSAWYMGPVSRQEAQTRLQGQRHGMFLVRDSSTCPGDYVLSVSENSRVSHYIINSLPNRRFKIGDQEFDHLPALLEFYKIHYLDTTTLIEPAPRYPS
Chain of RASA1-NC (Homo sapiens) (P20936 176-446): as the sequence (P20936 176-446) above
Chain of SOCS5 (Homo sapiens) (O75159 376-481): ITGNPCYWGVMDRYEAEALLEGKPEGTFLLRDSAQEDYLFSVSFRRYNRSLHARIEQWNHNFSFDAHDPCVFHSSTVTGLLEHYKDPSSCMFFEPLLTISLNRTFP
Chain of SLA (Homo sapiens) (Q13239 79-180): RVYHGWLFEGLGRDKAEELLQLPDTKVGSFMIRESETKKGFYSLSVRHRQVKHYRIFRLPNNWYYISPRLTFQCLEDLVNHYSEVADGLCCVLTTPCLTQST

With …pYLTPQGGA, the apparent Kd (screen) in data set [1] was 0.346 µM; in data set [2] it was 1.44 µM; in data set [3], 1.15 µM; in data set [4] it was 1.33 µM; in data set [5], 0.226 µM; in data set [6], 0.368 µM. In addition, the apparent Kd (screen) is 0.476 µM in [7]; 0.226 µM in data set [8]; 1.25 µM in data set [9]; 0.671 µM in [10]; 0.95 µM in data set [11]; 0.638 µM in [12]. For the same substance, the apparent Kd (screen) in data set [13] was 0.767 µM; in data set [14] it was 0.596 µM; in [15], 1.24 µM; in data set [16] it was 0.372 µM; in [17], 1.39 µM; in data set [18], 1.33 µM. Besides, the apparent Kd (screen) in [19] was 1.35 µM; in data set [20] it was 1.28 µM; in data set [21] it was 1.34 µM; in data set [22], 1.1 µM; in data set [23], 1.19 µM; in [24], 0.759 µM. Moreover, the values for the apparent Kd (screen) in [25] and in data set [26] were 1.68 µM and 0.153 µM, respectively.

For …pYMNRQRDG, the apparent Kd (screen) in data set [27] was 1.21 µM; in data set [28], 2 µM; in data set [29], 2 µM; in data set [30] it was 1.96 µM; in [31], 2 µM; in data set [32], 2 µM. In addition, the apparent Kd (screen) in [33] and in data set [34] was 2 µM in each case.

On to …pYDGIPASEd, for which the apparent Kd (screen) was 1.47 µM in data set [35]; 0.177 µM in data set [36]; 1.55 µM in data set [37]; 1.06 µM in [38]; 1.41 µM in data set [39]; 0.137 µM in data set [40]. Also, the apparent Kd (screen) is 0.328 µM in data set [41] and 1.18 µM in [42].

For …pYMNRRRRH, the apparent Kd (screen) is 1.47 µM in data set [43]; 1.46 µM in data set [44]; 0.585 µM in [45]; 1.51 µM in data set [46]; 1.35 µM in data set [47]; 1.38 µM in [48]. In addition, the apparent Kd (screen) in [49] is 1.81 µM; in [50], 0.306 µM; in data set [51] it was 0.296 µM; in data set [52], 1.13 µM.
